Experimental data taken from patent publication US20250034594A1, “RNA-GUIDED GENOME RECOMBINEERING AT KILOBASE SCALE” (THE BOARD OF TRUSTEES OF THE LELAND STANFORD JUNIOR …, priority 2021, published 2025).

Legend:
DYNLT1 locus = assay: mKate knock-in gene-editing assay, RecE/RecT homologs, DYNLT1 locus; type: cell-based, human; conditions: HEK293 cells, MCP fusion, n=3
Protocol: (§1) Transfection HEK293T cells were seeded into 96-well plates (Corning) 12-24 hours prior to transfection at a density of 30,000 cells/well, and 250 ng of total DNA was transfected per well. HeLa and HepG2 cells were seeded into 48-well plates (Corning) one day prior to transfection at a density of 50,000 and 30,000 cells/well respectively, and 400 ng of total DNA was transfected per well. Transfections were performed with Lipofectamine 3000 (Life Technologies) following the manufacturer's instructions.
(§2) Fluorescence-activated cell sorting (FACS) mKate knock-in efficiency was analyzed on a CytoFLEX flow cytometer (Beckman Coulter; Stanford Stem Cell FACS Core). 72 hours after transfection, cells were washed once with PBS and dissociated with TrypLE Express Enzyme (Thermo Fisher Scientific). Cell suspension was then transferred to a 96-well U-bottom plate (Thermo Fisher Scientific) and centrifuged at 300×G for 5 minutes. After removing the supernatant, pelleted cells were resuspended with 50 μl 4% FBS in PBS, and cells were sorted within 30 minutes of preparation.
(§3) 15 different species of microbes having RecE/RecT proteins were selected for a screen of various RecE and RecT proteins across the microbial kingdom (Table 3). Each protein was codon-optimized and synthesized. As previously described for E. coli RecE/RecT based REDIT systems, each protein was fused via E-XTEN linker to the MCP protein with additional nuclear localization signal. mKate knock-in gene-editing assay was used to measure efficiencies at DYNLT1 locus (FIG. 26A, Table 4) and HSP90AA1 locus (FIG. 26B, Table 4).

HSP90AA1 locus = assay: mKate knock-in gene-editing assay, RecE/RecT homologs, HSP90AA1 locus; type: cell-based, human; conditions: HEK293 cells, MCP fusion, n=3
Protocol: as §1, §2, §3

[1] = test system: endogenous genome targets (ACTB, HSP90AA1); assay: Arrayed SSAP library screening, mKate knock-in assay (editing efficiency); type: cell-based; conditions: average of HSP90 and ACTB, 3 days after transfection
Procedure, shortened: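 Mammalian cells in duplicate were transfected with SSAP-encoding plasmids, with about 50% transfection efficiency. mKate knock-in positive cells and viability, by flow-cytometric live counts, were quantified three days later. RecT SSAP served as positive control and Flag-HA plasmid as negative control.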

mammalian cells = assay: Arrayed SSAP library screening, cell viability by live cell counts via flow cytometry; type: cell-based
Procedure, shortened: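 Each SSAP plasmid transfected in duplicate (~50% efficiency), with RecT SSAP as positive and Flag-HA as negative control. After three days, mKate-positive cells and viability by flow-cytometric live cell counts were quantified to gauge SSAP fitness effects.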

gene editing with Cas9 = assay: Screen of 322 new SSAP proteins, gene editing activity with Cas9 (Table 5); type: cell-based; parameters: Cas9 with SSAP activity: scale not given here
Procedure, shortened: (§4)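 Sequence-mined SSAPs (n=322), synthesized; editing activity screened with Cas9 or dCas9.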

gene editing with dCas9 = assay: Screen of 322 new SSAP proteins, gene editing activity with dCas9 (Table 5); type: cell-based; parameters: dCas9 with SSAP activity: scale not given here
Procedure, shortened: as §4

[2] = test system: gene editing with Cas9 and dCas9; assay: Screen of 322 new SSAP proteins, activity across all experiments (Cas9 and dCas9, Table 5); type: cell-based; parameters: scale not given here
Procedure, shortened: as §4

B1: Homolog_E5: RecE, Providencia stuartii; SEQ ID NO: 124 (protein, listed as Providencia stuartii)
chain: EGIYYNISNEDYHNGLGISKSQLDLINEMPAEYIWSKEAPVDEEKIKPLEIGTALHCLLLEPDEYHKRYKIGPDVNRRTNAGKEKEKEFFDMCEKEGITPITHDDNRKLMIMRDSALAHPIAKWCLEADGVSESSIYWTDKETDVLCRCRPDRIITAHNYIVDVKSSGDIEKFDYEYYNYRYHVQDAFYSDGYKEVTGITPTFLFLVVSTKIDCGKYPVRTYVMSEEAKSAGRTAYKHNLLTYAECLKTDEWAGIRTLSLPRWAKELRNE
Question: Which “Mean mKate+ (%), DYNLT1” value (DYNLT1 locus) does the source give for B1 here?
Answer: Its value is 4.4667%.

Question: What about the “Mean mKate+ (%), HSP90AA1” value (HSP90AA1 locus) of the same molecule?
Answer: Its value is 6.0233%.

B2: Homolog_E3: RecE, Pantoea dispersa; SEQ ID NO: 120 (protein, listed as Pantoea dispersa)
chain: MEPGIYYDISNEAYHSGPGISKSQLDDIARSPAIFQWRKDAPVDTEKTKALDLGTDFHCAVLEPERFADMYRVGPEVNRRTTAGKAEEKEFFEKCEKDGAVPITHDDARKVELMRGSVMAHPIAKQMIAAQGHAEASIYWHDESTGNLCRCRPDKFIPDWNWIVDVKTTADMKKFRREFYDLRYHVQDAFYTDGYAAQFGERPTFVFVVTSTTIDCGRYPTEVFFLDEETKAAGRSEYQSNLVTYSECLSRNEWPGIATLSLPHWAKELRNV
Question: Which “Mean mKate+ (%), DYNLT1” value (DYNLT1 locus) does the source give for B2 here?
Answer: The value was 2.0533%.

Question: What about the “Mean mKate+ (%), HSP90AA1” value (HSP90AA1 locus) of the same molecule?
Answer: Its value is 6.7467%.

B3: Homolog_E2: RecE, Pantoea brenneri; SEQ ID NO: 118 (protein, listed as Pantoea brenneri)
chain: MQPGIYYDISNEDYHRGAGISKSQLDDIAISPAIYQWRKHAPVDEEKTAALDLGTALHCLLLEPDEFSKRFQIGPEVNRRTTAGKEKEKEFIERCEAEGITPITHDDNRKLKLMRDSALAHPIARWMLEAQGNAEASIYWNDRDAGVLSRCRPDKIITEFNWCVDVKSTADIMKFQKDFYSYRYHVQDAFYSDGYESHFHETPTFAFLAVSTSIDCGRYPVQVFIMDQQAKDAGRAEYKRNIHTFAECLSRNEWPGIATLSLPFWAKELRNE
Question: For B3, which “Mean mKate+ (%), DYNLT1” value (DYNLT1 locus) is on record?
Answer: Its value is 7.4533%.

Question: What about the “Mean mKate+ (%), HSP90AA1” value (HSP90AA1 locus) of the same molecule?
Answer: Its value is 6.4867%.

B4: Homolog_T3: RecT, Pantoea dispersa; SEQ ID NO: 119 (protein, listed as Pantoea dispersa)
chain: MSNQPPLATADLQKTQQSNQVAKTPEQTLVGFMNQPAMKSQLAAALPRHMTADRMIRIVTTEIRKTPALAQCDQSSFIGAVVQCSQLGLEPGSALGHAYLLPFGNGRSKSGQSNVQLIIGYRGMIDLARRSGQIVSLSARVVRADDEFSFEYGLDENLIHRPGDNESAPITHVYAVARLKDGGTQFEVMTAKQVEKVKAQSKASSNGPWVTHWEEMAKKTVIRRLFKYLPVSIEMQKAVVLDEKAESDVDQDNASVLSAEYSVLESGTGE
Question: B4 was tested. Which “Mean mKate+ (%), DYNLT1” value (DYNLT1 locus) did it give?
Answer: Its value is 11.9000%.

Question: What about the “Mean mKate+ (%), HSP90AA1” value (HSP90AA1 locus) of the same molecule?
Answer: The value was 7.1200%.

B5: Homolog_T1: RecT, Pantoea stewartii; SEQ ID NO: 115 (protein, listed as Pantoea stewartii)
chain: MSNQPPIASADLQKANTGKQVANKTPEQTLVGFMNQPAMKSQLAAALPRHMTADRMIRIVTTEIRKTPALATCDQSSFIGAVVQCSQLGLEPGSALGHAYLLPFGNGRSKSGQSNVQLIIGYRGMIDLARRSGQIVSLSARVVRADDEFSFEYGLDENLIHRPGENEDAPITHVYAVARLKDGGTQFEVMTVKQIEKVKAQSKASSNGPWVTHWEEMAKKTVIRRLFKYLPVSIEMQKAVILDEKAESDVDQDNASVLSAEYSVLDGSSEE
Question: What does the source list for B5?
Answer: Mean mKate+ (%), DYNLT1 (DYNLT1 locus): 11.7333%; Mean mKate+ (%), HSP90AA1 (HSP90AA1 locus): 8.0733%

B6: SSAP_198: SEQ ID NO: 367; Streptomyces sp. ms191 (protein, listed as Streptomyces sp.)
chain: VEHYKADLAQVMPSHVKPDTFIRLAVGVLRRDRNLAQAAQNNPAALMGALMDAAQLGLTPGTEQFYLVPRKKAGRLEVQGIRGYQGEIELIYRAGAVSSVIVEVVRQADTFRYSPGRDERPEHEIDWDAEDRGPLRLVYAYAVMKDGATSKVVVLNRAQVMKAKAMSQGSDSAYSPWQKHEEAMWMKTAAHRLTKWVPTSAEYMREQLRAAAEVAAEHRPTPVAAAPGMPSVPGEDEAIEAEFVDEDEVA
Question: Which results are given for B6?
Answer: Editing Efficiency (Normalized, Average, two targets) ([1]; fold over negative control (Flag_HA)): 5.524; Editing Efficiency (Absolute, Average, two targets) ([1]; percent of mKate knock-in): 13.65; Cell Viability (Average, two targets) (mammalian cells): 0.4444; Cas9 with SSAP activity (gene editing with Cas9): −4.061; Cas9 with SSAP activity (normalized) (gene editing with Cas9; normalized): −0.571; dCas9 with SSAP activity (gene editing with dCas9): −2.578; dCas9 with SSAP activity (normalized) (gene editing with dCas9; normalized): −0.849; Activity across all experiments [2]: −3.320

B7: Homolog_T2: RecT, Pantoea brenneri; SEQ ID NO: 117 (protein, listed as Pantoea brenneri)
chain: MSNQPPIASADLQKTQQSKQVANKTPEQTLVGFMNQPAMKSQLAAALPRHMTADRMIRIVTTEIRKTPQLAQCDQSSFIGAVVQCSQLGLEPGSALGHAYLLPFGNGRSKSGQSNVQLIIGYRGMIDLARRSGQIVSLSARVVRADDEFSFEYGLDENLVHRPGENEDAPITHVYAVARLKDGGTQFEVMTVKQVEKVKAQSKASSNGPWVTHWEEMAKKTVIRRLFKYLPVSIEMQKAVVLDEKAESDVDQDNASVLSAEYSVLESGDEATN
Question: What does the source list for B7?
Answer: Mean mKate+ (%), DYNLT1 (DYNLT1 locus): 12.0000%; Mean mKate+ (%), HSP90AA1 (HSP90AA1 locus): 6.9233%

B8: Homolog_E1: RecE, Pantoea stewartii; SEQ ID NO: 116 (protein, listed as Pantoea stewartii)
chain: MQPGVYYDISNEEYHAGPGISKSQLDDIAVSPAIFQWRKSAPVDDEKTAALDLGTALHCLLLEPDEFSKRFMIGPEVNRRTNAGKQKEQDFLDMCEQQGITPITHDDNRKLRLMRDSAFAHPVARWMLETEGKAEASIYWNDRDTQILSRCRPDKLITEFSWCVDVKSTADIGKFQKDFYSYRYHVQDAFYSDGYEAQFCEVPTFAFLVVSSSIDCGRYPVQVFIMDQQAKDAGRAEYKRNLTTYAECQARNEWPGIATLSLPYWAKEIRNV
Question: Which results are given for B8?
Answer: Mean mKate+ (%), DYNLT1 (DYNLT1 locus): 5.7333%; Mean mKate+ (%), HSP90AA1 (HSP90AA1 locus): 7.6567%

B9: Homolog_T4: RecT, Type-F symbiont of Plautia stali; SEQ ID NO: 121 (protein)
chain: MSNQPPIASADLQKTQQSKQVANKTPEQTLVGFMNQPAMKSQLAAALPRHMTADRMIRIVTTEIRKTPALATCDQSSFIGAVVQCSQLGLEPGSALGHAYLLPFGNGRSKSGQSNVQLIIGYRGMIDLARRSGQIVSLSARVVRADDEFSFEYGLDENLIHRPGDNEDAPITHVYAVARLKDGGTQFEVMTAKQVEKVKAQSKASSNGPWVTHWEEMAKKTVIRRLFKYLPVSIEMQKAVVLDEKAESDVDQDNASVLSAEYSVLEGDGGE
modifications: Type-F symbiont of Plautia stali
Question: Which results are given for B9?
Answer: Mean mKate+ (%), DYNLT1 (DYNLT1 locus): 10.4433%; Mean mKate+ (%), HSP90AA1 (HSP90AA1 locus): 5.7567%

B10: Homolog_T5: RecT, Providencia stuartii; SEQ ID NO: 123 (protein, listed as Providencia stuartii)
chain: MSNPPLAQADLQKTQGTEVKEKTKDQMLVELINKPSMKAQLAAALPRHMTPDRMIRIVTTEIRKTPALATCDMQSFVGAVVQCSQLGLEPGNALGHAYLLPFGNGKSKSGQSNVQLIIGYRGMIDLARRSGQIVSISARTVRQGDNFHFEYGLNENLTHVPGENEDSPITHVYAVARLKDGGVQFEVMTYNQIEKVRASSKAGQNGPWVSHWEEMAKKTVIRRLFKYLPVSIEMQKAVILDEKAEANIDQENATIFEGEYEEVGTDGK
Question: Which “Mean mKate+ (%), DYNLT1” value (DYNLT1 locus) does the source give for B10 here?
Answer: The value was 10.8267%.

Question: What about the “Mean mKate+ (%), HSP90AA1” value (HSP90AA1 locus) of the same molecule?
Answer: The value was 6.4300%.

B11: Homolog_E4: RecE, Type-F symbiont of Plautia stali; SEQ ID NO: 122 (protein)
chain: MQPGIYYDISNEDYHGGPGISKSQLDDIAISPAIYQWRKHAPVDEEKTAALDLGTALHCLLLEPDEFSKRFEIGPEVNRRTTAGKEKEKEFMERCEAEGVTPITHDDNRKLRLMRDSAMAHPIARWMLEAQGNAEASIYWNDRDTGVLSRCRPDKIITDFNWCVDVKSTADIIKFQKDFYSYRYHVQDAFYSDGYESHFDETPTFAFLAVSTSIDCGRYPVQVFIMDQQAKDAGRAEYKRNIHTFAECLSRNEWPGIATLSLPYWAKELRNE
modifications: Type-F symbiont of Plautia stali
Question: For B11, which “Mean mKate+ (%), DYNLT1” value (DYNLT1 locus) is on record?
Answer: The value was 5.7200%.

Question: And the “Mean mKate+ (%), HSP90AA1” value (HSP90AA1 locus)?
Answer: Its value is 6.2567%.
